Experimental data taken from article PMC3990709, “Structural Differences Explain Diverse Functions of Plasmodium Actins” (PLoS Pathogens, 2014).
“And” between values parts separate entries of the source, which are not always exact repeats. Equal entries are not always repeated.

Biological target: the molecule itself
Assay: native gel or EMSA; native PAGE, ATP form, 0.1 mM CaCl2 and 0.5 mM ATP in the running buffer, 277 K; samples 6.7 µM, immediately and 48 h after purification (stored on ice)

B1: Plasmodium falciparum actin I (natural protein)
chain: not shown
notes: actin I of Plasmodium falciparum, PlasmoDB PF3D7_1246200; also called PfActI; Plasmodium actin I; source: Sf21 cells at 300 K, purified (size exclusion chromatography), alone or as a complex with G1
- stoichiometry N: 4 and 12
